Measured values as given in paper PMC10786315 (Proceedings of the National Academy of Sciences of the …, 2024).

Molecular target: the molecule itself
Experiment: SEC

B1: LctR (LctP Regulator, CJ1608) (natural protein, C. jejuni, UniProt Q0P820 1-295, looked up)
chain: MKVLIIENEIYLAQSISIKLSDAGYSCEIINSFDEYNGEKYYDIILLSTNTNNFLKAVGQFKHSIIILLISYISTDTVSNPLKLGASDYIQKPFMIEELIRKIKHYQDFRKLSILNKAYQSYIKSRLETIKIPEYNYKKLKLPLILKSNKQSSADAFVFNYANECDITLSFIDLTSTNSVEKVMKLPTENNLLFLSNFQALKAAEKEKLLDFIQNKNVILHTNSNTDDLKINCINLNDNEKNINSNEILTIDEYVKYVIINYQNIFPDTDLSKKLGISRKSLWEKRKKYEISKKK
  stoichiometry N: 2
